Test results reported in US20160114035A1.

Tests used:
Test in all cases: binding to purified HLA
Settings in all cases: chains peptide; modification not given
[1] = molecular target: DRB4*0101
[2] = molecular target: DRB1*1501
[3] = molecular target: DRB1*1101
[4] = molecular target: DRB1*0802
[5] = molecular target: DRB1*0401
[6] = molecular target: DRB1*0404
[7] = molecular target: DRB1*0701
[8] = molecular target: DRB1*1302
[9] = molecular target: DRB1*0405
[10] = molecular target: DRB1*0301
[11] = molecular target: DRB5*0101
[12] = molecular target: DRB1*0101
[13] = molecular target: DRB1*0901

Binder: AKFVAAWTLKAAA [SEQ ID NO: 3]
- IC50 [1]: 447 nM
- IC50 [2]: 37 nM
- IC50 [3]: 9.1 nM
- IC50 [4]: 9.5 nM
- IC50 [5]: 1.4 nM
- IC50 [6]: 0.79 nM
- IC50 [7]: 97 nM
- IC50 [8]: 367 nM
- IC50 [9]: 32 nM
- IC50 [10]: 289 nM
- IC50 [11]: 19 nM
- IC50 [12]: 4 nM
- IC50 [13]: 50 nM
